Experiment [1] addresses dynamin I (native, from rat brain synaptosomes; total pool) (rat) (UniProt P21575). Nature of the experiment: sequential GST pull-downs from synaptosome lysate; molar ratio GST-AmphI-SH3:dynamin above 2:1.
Experiment [2] concerns the target amphiphysin I (native, from rat brain lysate) (rat) (UniProt O08838). Briefly: peptide competition in GST-DynI-PRD pull-down from rat brain lysate; the filing later calls this an experimental artefact.
Experiment [3] has as its target dynamin I (native, from rat brain synaptosomes; total pool) (rat) (UniProt P21575). Nature of the experiment: GST pull-down from synaptosome lysate without salt.
For experiment [4], the target named is phospho-dynamin I (native, phosphorylated in vivo, from rat brain synaptosomes) (rat) (UniProt P21575). Briefly: GST pull-down from 32Pi-labelled synaptosome lysate, 150 mM NaCl, quantitative analysis of autoradiograph against protein.
Chain of phospho-dynamin I (native, phosphorylated in vivo, from rat brain synaptosomes) (rat) (P21575 whole entry): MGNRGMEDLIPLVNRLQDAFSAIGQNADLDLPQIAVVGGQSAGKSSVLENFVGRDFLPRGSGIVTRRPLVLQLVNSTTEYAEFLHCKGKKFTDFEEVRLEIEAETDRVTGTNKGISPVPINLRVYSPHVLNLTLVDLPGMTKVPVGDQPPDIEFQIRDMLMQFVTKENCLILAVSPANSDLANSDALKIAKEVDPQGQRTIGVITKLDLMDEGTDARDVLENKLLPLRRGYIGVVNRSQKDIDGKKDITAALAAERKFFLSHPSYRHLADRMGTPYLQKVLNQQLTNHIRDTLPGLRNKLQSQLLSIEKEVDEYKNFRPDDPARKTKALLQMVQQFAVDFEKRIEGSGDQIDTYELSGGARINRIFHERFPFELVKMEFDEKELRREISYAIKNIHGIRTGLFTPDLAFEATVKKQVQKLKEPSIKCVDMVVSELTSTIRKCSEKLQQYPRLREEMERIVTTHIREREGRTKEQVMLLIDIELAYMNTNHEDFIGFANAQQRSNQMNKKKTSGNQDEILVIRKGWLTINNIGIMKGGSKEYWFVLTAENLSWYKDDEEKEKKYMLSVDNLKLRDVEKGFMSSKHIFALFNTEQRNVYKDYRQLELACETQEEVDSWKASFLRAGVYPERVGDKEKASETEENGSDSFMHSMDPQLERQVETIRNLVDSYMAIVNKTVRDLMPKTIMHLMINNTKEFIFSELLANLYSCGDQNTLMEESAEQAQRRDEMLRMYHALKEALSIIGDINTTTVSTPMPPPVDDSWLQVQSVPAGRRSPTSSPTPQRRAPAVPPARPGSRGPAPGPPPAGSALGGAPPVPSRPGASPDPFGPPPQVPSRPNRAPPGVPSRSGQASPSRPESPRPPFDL

Chain of dynamin I (native, from rat brain synaptosomes; total pool) (rat) (P21575 whole entry): as above
Chain of amphiphysin I (native, from rat brain lysate) (rat) (O08838 whole entry): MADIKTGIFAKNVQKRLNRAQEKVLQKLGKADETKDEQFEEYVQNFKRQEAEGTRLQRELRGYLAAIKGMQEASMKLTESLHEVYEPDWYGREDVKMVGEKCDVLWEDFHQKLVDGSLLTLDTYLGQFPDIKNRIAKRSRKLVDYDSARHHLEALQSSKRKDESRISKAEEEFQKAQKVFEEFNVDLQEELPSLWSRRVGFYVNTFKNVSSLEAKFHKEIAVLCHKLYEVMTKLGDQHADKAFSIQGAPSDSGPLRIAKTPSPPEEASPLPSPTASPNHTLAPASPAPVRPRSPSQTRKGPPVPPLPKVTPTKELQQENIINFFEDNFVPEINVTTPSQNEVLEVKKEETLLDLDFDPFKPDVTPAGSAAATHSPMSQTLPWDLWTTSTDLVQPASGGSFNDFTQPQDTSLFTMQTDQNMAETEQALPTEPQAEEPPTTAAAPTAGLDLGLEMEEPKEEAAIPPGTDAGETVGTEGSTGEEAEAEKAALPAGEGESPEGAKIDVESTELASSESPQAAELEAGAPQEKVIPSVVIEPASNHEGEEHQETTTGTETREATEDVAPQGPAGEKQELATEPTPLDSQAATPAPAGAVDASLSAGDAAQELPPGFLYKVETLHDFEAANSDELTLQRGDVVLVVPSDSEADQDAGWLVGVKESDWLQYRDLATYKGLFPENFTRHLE
Chain of GST-EndoI-SH3 (O35179 290-349): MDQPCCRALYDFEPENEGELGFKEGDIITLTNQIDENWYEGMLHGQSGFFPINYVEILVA

Consider GST-AmphI-SH3, for which the residual dynamin recovered in a second sequential pull-down in experiment [1] was below 1%.

On to DynI783-796 peptide, for which, in experiment [2], the fold higher peptide concentration needed for inhibition was 10 fold. As for GST-EndoI-SH3, the percent of synaptosomal dynamin I extracted in experiment [3] was above 95%. In experiment [4], “full-length GST-fusion protein of syndapin I (SdpnI-FL)” yielded a binding to phospho-dynamin I relative to the total dynamin I bound to the beads (% of AmphI-SH3 control) of 56. As for “full-length GST-fusion protein of endophilin I (EndoI-FL)”, the binding to phospho-dynamin I relative to the total dynamin I bound to the beads (% of AmphI-SH3 control) in experiment [4] was determined as 91.

The values above are taken from patent US20080306007A1, “AGENTS FOR PROPHYLAXIS OR TREATMENT OF NEUROLOGICAL RELATED DISEASES AND CONDITIONS” (Newcastle Innovation Limited, priority 2007, published 2008).
